Laboratory results as given in patent US20210275590A1 (LEGEND BIOTECH IRELAND, published 2021).

Target: T1, Recombinant human CD33 protein (human, UniProt P20138 18-259)
T1 construct: Obtained commercially; also called huCD33
Assay: SPR (BIACORE T200), crude sdAb captured via affinity tag, 100 nM human CD33 as analyte
Protocol: The sdAb proteins in the supernatant were analyzed for their ability to bind to CD33 ECD proteins by ELISA and CD33-overexpressing MV4-11 cell lines by FACS. All binders were sequenced and some were subjected to for further characterization including affinity ranking by surface plasmon resonance (SPR) on a BIACORE® T200 instrument. The experiments were carried out as follows: the crude sdAb proteins were captured through an affinity tag onto the sensorchip. High-concentration (100 nM) of human CD33 flowed over the sensorchip surface, and was allowed to bind the antibody fragments. On-rate (kₒₙ) and off-rate (koff) were roughly calculated based on the association and dissociation of one antigen concentration, and were used to estimate the equilibrium dissociation constant (KD).

T1 sequence (P20138 18-259 limits assumed): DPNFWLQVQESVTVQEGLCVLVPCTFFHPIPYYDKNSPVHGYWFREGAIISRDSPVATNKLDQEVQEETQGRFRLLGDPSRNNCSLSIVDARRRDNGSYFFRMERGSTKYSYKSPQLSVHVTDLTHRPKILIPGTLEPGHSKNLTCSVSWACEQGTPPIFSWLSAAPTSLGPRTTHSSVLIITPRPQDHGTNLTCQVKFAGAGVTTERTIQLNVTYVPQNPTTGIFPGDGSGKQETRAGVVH

Row | Binder | binding result
1 | AS49902 sdAb (VHH, Camel sdAb) VHH: EVQLVESGGGLVQAGGSLRLSCTASGFTFDDYVMGWFRQAPGKEREGVSCISWSGDTTYYADSVKGRFTVSRDNAKNTLYLQMNSLKPEDTAMYYCAADQSLCSLAPPYNYAYWGQGTQVTVSS | binds
2 | AS49175 sdAb (VHH, Camel sdAb) VHH: EVQLAESGGGLVQAGGSLRLSCTASGFTFDDYVMGWFRQAPGKEREGVSCISWSGDTTYYADSVKGRFTASRDNAKNTLYLQMNSLKPEDTAMYYCAADQGKCSLASAEPDDMDYWGRGTLVTVSS | binds
3 | AS50073 sdAb (VHH, Camel sdAb) VHH: QVQLVESGGGLVQAGGSLRLSCTASGFTFDNYVMGWFRQAPGKEREGVSCIGWSGGSTYYADSVKGRFTISRDNAKNTLYLQMNSLKPEDTAMYYCAADQGKCSLGSAGADDMDYWGRGTLVTVSS | binds
4 | AS50502 sdAb (VHH, Camel sdAb) VHH: EVQLVESGGGSVQAGGSLRLSCAAPGYTYCTYDMMWYRQALGKEREFVSAVYTDGSTLYADSVKGRFTISQDNAKNTLYLQMNSLKPEDTAMYYCKTETAVTYDKPCDFWGQGTQVTVSS | binds
5 | AS66873 sdAb (VHH, Camel sdAb) VHH: QVQLVESGGGLVQPGGSLRLSCAASGSIFSITAMGWYRQAPGKQRELVATVTSGGSTKYVESVKGRFTISNDNAKNTVYLQMNSLKPEDTAVYYCWADIVARWNSDYNVYDDYWGQGTQVTVSS | binds
6 | AS60399 sdAb (VHH, Camel sdAb) VHH: QVKLEESGGGLVQEGGSLRLSCAASGTIYTDSTIYWYRQAPGKQRELVASITRGGDTKYVDSVKGRFAISSDNAKNTVYLQMNSLKPEDTAVYYCNLYYRTGPSSYYRNDWGQGTQVTVSS | binds
7 | AS59101 sdAb (VHH, Camel sdAb) VHH: AVQLVESGGGLVQPGGSLRLSCAVSGIYYSINLMGWYRQAPGKPRELAASITDSGITNYADSVKGRFTISRDNAKNTVHLQMNNLKPEDTAVYYCKPMGVNWGQGIQVTVSS | binds
8 | AS58930 sdAb (VHH, Camel sdAb; also called AS58930C) VHH: AVQLVESGGGLVQAGGSLRLSCTASGSILRTYEMGWYRQAPGSQRELVASITSDGDTNYVDSVKGRFTISRDNGKNMVYLQMNSLKPDDTAVYYCNAVILSPSYSMRTSHWGQGTQVTVSS | binds
9 | AS67190 sdAb (VHH, Camel sdAb) VHH: QVQLVESGGGLVQAGGSLRLSCAASGNVFRFNIMGWYRQAPGNQRELVASIDDGGDRSYADSVEGRFTISRENGKKIMYLQMNSLKPEDTAVYYCAAGLGTYLNGRVSMATNYWGQGTQVTVSS | binds
10 | AS67147 sdAb (VHH, Camel sdAb) VHH: EVQLVESGGGLVQAGGSLRLSCAASGDTFSFAAMGWYRQAPGKQRELVASISFSGGESTVYANSVRGRFTISGDNAKNRVSLEMNNLKPEDTAVYYCTAKRGPYLPGPEYWGQGTQVTVSS | binds
11 | AS49226 sdAb (VHH, Camel sdAb) VHH: EVQLAESGGGSVQAGGSLRLSCAASGVTFSSTSVAWFRQAPGKEREGVAYIYTGDSSTYYADSVKGRFTIAQDNAKNAVYLQMNSLKPEDTAMYYCAADGFLLNHRSYQYWGQGTQVTVSS | binds
12 | AS49264 sdAb (VHH, Camel sdAb) VHH: EVQLVESGGGSVQAGGSLRLSCAASGYTYSINCMGWFRQAPGKEREGVAVISTGGGRTDYRDSVKGRFTISQDNAKNTVYLQMNSLKPEDTAMYYCAGKTTYPGYGCGLGRSAYNYWGQGTQVTVSS | binds
13 | AS49814 sdAb (VHH, Camel sdAb) VHH: QIQLVESGGGSVQAGGSLRLSCVASGYIGGHYYMGWFRQAPGKEREGVAAIDIDSDGRTRYAGSVQGRFTISQDNAKNTLHLQMSSLKPEDTGMYYCAVGVGWVPARLTPQAVSYWGKGTLVTVSS | binds
14 | AS49873 sdAb (VHH, Camel sdAb) VHH: EVQLVESGGGSVQAGGSLRLSCVASGYTYGINCMGWFRQAPGKEREGIAAISTGGGTTGVADSVKGRFTISQDNAKNTVYLQMNSLKPEDTAMYYCAARSTYSGYACVYSEVNGYNYRGQGTQVTVSS | binds
15 | AS49889 sdAb (VHH, Camel sdAb) VHH: EVQLVESGGGSVQAGGSLRLSCVASGYTWCRYDMSWYRQAPGKEREFVSGFDNDGTTSYADSVKGRFTISQDNDKNTVYLQMNSLKPEDTAMYYCKEDRSRGSLDGRVCPLSYDNWGQGTQVTVSS | binds
